Reference: patent publication US20120122711A1, “SCREENING OF BIOPOLYMERS” (priority 2009, published 2012)
Values belong to the substance of their own block, whether it stands above or below them. Non-standard residues stand in square brackets, D forms with d. Primed or numbered codes have the meaning given here. No end group written: not given here. PEG2′ = PEG2 tether (Merck, 20 atoms)

Assays:
[1] = target: bovine carbonic anhydrase II (bovine) (UniProt P00921); assay: dot blot, biotinylated peptide on spotted bCAII
[2] = target: bovine carbonic anhydrase II (bovine) (UniProt P00921); assay: dot blot, peptide with biotin at C-terminus on spotted bCAII
[3] = target: T1, bovine carbonic anhydrase II (bCAII) (Bos taurus, UniProt P00921); assay: Surface Plasmon Resonance (SPR) of peptide ligands on immobilized bCAII; format: binding; conditions: for response in SPR sensogram, in words: compared with other peptide ligands; for maximum response (Rmax): highest concentration (1.0 μM), bCAII immobilized to RU of 1000, FIG. 14; for interaction with bCAII: acetylated peptides, FIG. 9; for association-dissociation pattern in SPR sensogram: in words
Excerpt: Validation by SPR. The peptide ligands were investigated for their binding affinity towards bCAII using SPR as a validation tool. The target marker was immobilized onto CM5 sensor chip to a response unit (RU) of 1000 in a Biacore T100 system. Each peptide solution of a series of concentrations was eluted through the surface of the chip to observe the response as well as the dissociation pattern mediated by treatment of glycine-hydrochloride. As depicted in FIG. 14, the maximum responses (Rmax) by the peptide ligands increased in a stepwise fashion from the hexamer-2 to the decamers and then to the tetradecamer (8→40→140) at the highest concentration (1.0 μM).
Surface Plasmon Resonance (SPR) experiments to measure affinity of the re-synthesized peptide ligands. Affinity measurements were performed using a Biacore T100 system and research grade CM5 sensor chips (GE Heathcare). The instrument was primed with HBS-EP+ (GE Heathcare) buffer. Flow cell 1 (or 3) was used as a reference to subtract nonspecific binding, drift, and the bulk refractive index, while flow cell 2 (or 4) was immobilized with the target biomarker (bCAII) following standard procedures. A 1:1 mixture of 0.4 M EDC and 0.1 M NHS was used to activate flow cell 2 (or 4), and 0.1 mg/mL bCAII solution was injected. Blocking of the remaining activated groups was done with a 1 M solution of ethanolamine (pH 8.5). bCAII was immobilized onto the sensor chip surface by […] (RU). The instrument was then primed using running buffer (HBS-EP+). Each of the 6mer ligand candidates identified were dissolved in HBS-EP+buffer to produce 5 μM peptide stock solutions for each peptide, which were serially diluted by a factor of 2 to produce a concentration series down to 2 nM. For a given affinity measurement, these series of peptide solutions successively were injected into flow cell 2 (or 4) for […] of contact time, 5 min of dissociation time, and […] of stabilization time using a flow rate of 100 μL/min at 25° C. Flow cell 2 (or 4) was regenerated by glycine 2.5 (GE Healthcare) after injection of each peptide solution.

[4] = target: T1, bovine carbonic anhydrase II (bCAII); assay: Dot blot assay of biotin-conjugated peptide ligands on deposited bCAII; format: binding; conditions: for dot blot affinity/potency towards bCAII, in words: serial reduction of deposited bCAII, peptide 0.5 μM, compared with precursor
Protocol: Dot blot assays to measure affinity of the re-synthesized peptide ligands conjugated to biotin. […] A solution of bCAII was prepared as 10 mg/mL stocks in PBS buffer (pH 7.4). A serial dilution of the mother solution was applied to a nitrocellulose membrane, typically ranging from 2 μg to 5 ng per spot. The membrane was blocked at room temperature for 2 h in 5% nonfat milk/TBS-T. The membrane was then washed with TBS-T. […] After washing three times with TBS-T for 10 min, 1:3000 streptavidin-HRP (Abcam) prepared in 0.5% milk/TBS-T was added to the membrane and incubated for 2 h. After washing three times with TBS-T for 10 min, the membrane was treated with chemiluminescent reagents (Amersham ECL plus Western blotting detection reagents, GE Healthcare) and then immediately developed on film.

[5] = target: human carbonic anhydrase II (hCAII) (Homo sapiens, UniProt P00918); assay: Dot blot experiments of peptide ligands towards hCAII; format: binding; conditions: FIG. 9

T1 sequence (P00921 whole entry): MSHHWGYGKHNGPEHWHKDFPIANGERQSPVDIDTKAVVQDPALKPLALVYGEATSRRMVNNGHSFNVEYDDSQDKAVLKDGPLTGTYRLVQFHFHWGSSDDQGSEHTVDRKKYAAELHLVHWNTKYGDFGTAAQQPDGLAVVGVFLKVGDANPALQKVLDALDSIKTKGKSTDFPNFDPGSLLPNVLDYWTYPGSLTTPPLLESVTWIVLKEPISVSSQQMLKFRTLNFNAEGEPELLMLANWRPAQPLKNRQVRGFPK
Chain of bovine carbonic anhydrase II (bovine) (P00921 2-260 limits assumed): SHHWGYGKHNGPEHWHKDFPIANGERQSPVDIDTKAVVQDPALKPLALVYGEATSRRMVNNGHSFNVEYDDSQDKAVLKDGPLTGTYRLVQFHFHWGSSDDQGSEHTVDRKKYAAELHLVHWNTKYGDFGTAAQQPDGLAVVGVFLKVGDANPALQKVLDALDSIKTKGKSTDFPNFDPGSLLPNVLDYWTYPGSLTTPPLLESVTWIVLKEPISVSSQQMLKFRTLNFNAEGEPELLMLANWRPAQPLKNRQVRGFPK

Substance: ifvykr ([dI][dF][dV][dY][dK][dR]) [hexamer-2]
- response in SPR sensogram, in words [3]: even better property than hexamer-1
- maximum response (Rmax) [3]: 8 RU
- dot blot affinity/potency towards bCAII, in words [4]: even better property than hexamer-1

Substance: ifvykr-wryp ([dI][dF][dV][dY][dK][dR][dW][dR][dY][dP]) [decamer-4, 11]
- dot blot affinity/potency towards bCAII, in words [4]: most prominent

Substance: kvtflhrywf (Ac-[dK][dV][dT][dF][dL][dH][dR][dY][dW][dF]-NH2) [decamer-N1, 8, D-amino acids, acetylated]
- interaction with bCAII [3]: interacting with bCAII
- response in SPR sensogram, in words [3]: higher response unit (RU)
- association-dissociation pattern in SPR sensogram [3]: much more antibody-like behavior
- dot blot potency towards hCAII compared with bCAII [5]: similarly potent
- dot blot affinity/potency towards bCAII, in words [4]: more potent

Substance: lhrywf [hexamer-1]
- interaction with bCAII [3]: interacting with bCAII
- affinity (KD) in a Surface Plasmon Resonance (SPR) study ([3]; first-generation anchor peptide against bCAII): a few
- dot blot potency towards hCAII compared with bCAII [5]: more potent

Results, then the substance that gave them:

- lowest amount of deposited bCAII giving a developed spot [1]: 20 ng
Substance: decamer-3 (ryrr-ifvykr) (peptide)

- lowest amount of deposited bCAII giving a developed spot [2]: 20 ng
Substance: decamer-4 (ifvykr-wryp) (peptide)

- dot blot affinity/potency towards bCAII, in words [4]: most prominent
Substance: ryrr-ifvykr ([dR][dY][dR][dR][dI][dF][dV][dY][dK][dR]) [decamer-3, 10]

- maximum response (Rmax) [3]: 140 RU
- association-dissociation pattern in SPR sensogram [3]: more antibody-like pattern
- dot blot affinity compared with the two precursors decamer-N2 and decamer-C2 ([4]; peptide ligand 0.1 μM): not dramatically improved
- dot blot potency compared with initial anchor hexamer-2 ([4]; peptide ligand 0.1 μM): far more potent
Substance: ryrr-ifvykr-wryp ([dR][dY][dR][dR][dI][dF][dV][dY][dK][dR][dW][dR][dY][dP]-{PEG2′-biotin}) [tetradecamer-N2C, 12]
